Measurements as given in patent publication US20190389966A1 (Regeneron, published 2019).

Target: T1, MUC16 on OVCAR-3 cells (human, UniProt Q8WXI7 1-14507)
T1 construct: whole, on cells; also called Mucin 16
Experiment: FACS binding to OVCAR-3 cells

binding result: binds
B1: BSMUC16/CD3-001 (bispecific antibody, V domains shown)
VH 1: QVQLVESGGGLVKPGGSLRLSCAASGFTFSNYYMSWVRQAPGKGLEWISYISGRGSTIFYADSVKGRITISRDNAKNSLFLQMNSLRAEDTAVYFCVKDRGGYSPYWGQGTLVTVSS
VH 2: EVQLVESGGGLVQPGRSLRLSCAASGFTFDDYSMHWVRQAPGKGLEWVSGISWNSGSKGYADSVKGRFTISRDNAKNSLYLQMNSLRAEDTALYYCAKYGSGYGKFYHYGLDVWGQGTTVTVSS
VL: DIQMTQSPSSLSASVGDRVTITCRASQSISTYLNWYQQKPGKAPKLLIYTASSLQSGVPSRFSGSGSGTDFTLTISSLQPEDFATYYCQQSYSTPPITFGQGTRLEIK
notes: It was biotinylated in the ELISA and DFO/89Zr-labelled at Gln 295 for PET; also called anti-MUC16xCD3 bispecific antibody; BSMUC16/CD3-0001
